Values of other authors in paper PMC11578925.

Assays:
CD28 (Homo sapiens) = CD28 (Homo sapiens) (UniProt P10747)
PD-L1 (Homo sapiens) = PD-L1 (Homo sapiens) (UniProt Q9NZQ7)
Sequence of UniProt Q9NZQ7 (Q9NZQ7 19-238): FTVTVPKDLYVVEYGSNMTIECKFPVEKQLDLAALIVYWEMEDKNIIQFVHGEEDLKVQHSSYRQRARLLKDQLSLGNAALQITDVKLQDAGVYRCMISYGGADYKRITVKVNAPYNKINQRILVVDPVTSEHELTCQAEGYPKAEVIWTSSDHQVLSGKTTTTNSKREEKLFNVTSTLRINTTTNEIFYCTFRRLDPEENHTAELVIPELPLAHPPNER

Kd (CD28 (Homo sapiens)): 4000 nM | Kd (PD-L1 (Homo sapiens)): 1700 nM
Substance: CD80 (from UniProt P33681)
